Experimental data published in patent publication US5702897.

target: LexA/Bax fusion protein (murine) (UniProt P0A7C2)

First: B42/Bcl-2(1-81) hybrid
Second: B42/Bcl-2(1-218) hybrid
The colony formation of yeast cotransformed with LexA/Bax, galactose medium (neutralization of Bax activity) of the first is lower: 19 for the first, 280 for the second.

First: B42/Bcl-2(83-218) hybrid
Second: B42/Bcl-X-L hybrid
The colony formation of yeast cotransformed with LexA/Bax, galactose medium (neutralization of Bax activity) of the first is lower: 16 for the first, 300 for the second.

Compared with B42/Bcl-X-S hybrid, B42/Lamin is lower in colony formation of yeast cotransformed with LexA/Bax, galactose medium (neutralization of Bax activity): 10 for the first, 8 for the second.

For B42/Mcl-1 hybrid, the colony formation of yeast cotransformed with LexA/Bax, galactose medium (neutralization of Bax activity) was 290.
